Results taken from patent US20240392020A1 (JIANGSU HENGRUI PHARMACEUTICALS, published 2024).
Where two headings read alike, the source gives them in different places.

T1: CEA on MKN45 cells (UniProt P06731 35-685)
T1 construct: whole, on cells
T1 sequence (looked up): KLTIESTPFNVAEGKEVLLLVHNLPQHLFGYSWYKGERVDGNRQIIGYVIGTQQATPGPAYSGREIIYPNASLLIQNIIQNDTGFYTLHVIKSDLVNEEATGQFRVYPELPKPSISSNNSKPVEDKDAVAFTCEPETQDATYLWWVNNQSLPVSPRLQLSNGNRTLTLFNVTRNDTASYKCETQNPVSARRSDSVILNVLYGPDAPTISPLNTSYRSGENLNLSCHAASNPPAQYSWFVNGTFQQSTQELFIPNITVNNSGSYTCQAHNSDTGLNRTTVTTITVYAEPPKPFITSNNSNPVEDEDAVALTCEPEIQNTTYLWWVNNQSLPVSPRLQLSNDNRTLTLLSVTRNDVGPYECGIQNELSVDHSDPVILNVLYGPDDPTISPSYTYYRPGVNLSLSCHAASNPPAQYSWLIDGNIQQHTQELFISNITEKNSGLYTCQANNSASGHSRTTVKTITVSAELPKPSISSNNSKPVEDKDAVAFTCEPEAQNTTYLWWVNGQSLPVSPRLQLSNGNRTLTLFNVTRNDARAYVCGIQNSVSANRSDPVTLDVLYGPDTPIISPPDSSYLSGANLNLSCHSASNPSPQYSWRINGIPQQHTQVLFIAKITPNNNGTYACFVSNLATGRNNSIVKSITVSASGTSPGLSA


Experiments:
hBAFF = biological target: T2, hBAFF (human, UniProt Q9Y275 134-285); assay: ELISA
T2 construct: bought
Experimental: (§1) For an antibody targeting a soluble protein, the binding activity of the antibody against the soluble protein was detected by ELISA. […] After the blocking was completed, the blocking solution was discarded; and the plate was washed 3 times with a PBST buffer (pH 7.4, PBS containing 0.1% tween-20). 100 μL of the antibody solution diluted in a gradient was added to each well, and the mixture was incubated at 37° C. for 1 h. After the incubation was completed, the plate was washed 3 times with PBST. […] The plate was washed 3 times with PBST. […] The reaction was stopped by adding 50 μL of 1 M H₂SO₄ to each well. The absorbance values at 450 nm were read on a microplate reader, the binding curves of the antibodies to an antigen were fitted with software, and the EC₅₀ values were calculated.

CEA on MKN45 cells = biological target: T1, CEA on MKN45 cells; assay: FACS, MKN45 cells
hIL-5 [1] = biological target: T3, hIL-5 (human, UniProt P05113 20-134); assay: ELISA
T3 construct: bought
Experimental: as §1

hIL-5 [2] = biological target: T3, hIL-5; assay: ELISA; remark: listed apart in the source
Experimental: as §1

Row | EC50 (hBAFF) [nM] | EC50 (hIL-5 [1]) [nM] | Binder | also measured
1 | 0.5 | – | B3 (antibody) heavy: not shown light: SSELTQDPAVSVALGQTVRVTCQGDSLRSYYASWYQQKPGQAPVLVIYGKNNRPSGIPDRFSGSSSGNTASLTITGAQAEDEADYYCSSRDSSGNHWVFGGGTELTVLSEAPRFLTRPLAFVVSEGKDATLSSQIVGDPPPEVTWEKDQQPITAGARFRLAQDGDVYRLEILDLQLSDSGQYVSRARNAIGEAFACVGLQVDAEG | –
2 | 0.35 | – | B7 (antibody) heavy: not shown light: SSELTQDPAVSVALGQTVRVTCQGDSLRSYYASWYQQKPGQAPVLVIYGKNNRPSGIPDRFSGSSSGNTASLTITGAQAEDEADYYCSSRDSSGNHWVFGGGTELTVLSGAPRFLTRPLAFVVSVGKDATLSSQIVGNPTPQVSWEKDQLPVTAGARFRLAQDGDLYRLKILDLTLSDSGQYVSRARNAIGEAFACVGLEVGAEA | –
3 | 0.25 | – | B4 (antibody) heavy: not shown light: SSELTQDPAVSVALGQTVRVTCQGDSLRSYYASWYQQKPGQAPVLVIYGKNNRPSGIPDRFSGSSSGNTASLTITGAQAEDEADYYCSSRDSSGNHWVFGGGTELTVLSGAPRFLTRPLAFVVSVGKDATLSSQIVGNPTPQVSWEKDKQPVTAGARFRLAQDGDLYRLKILDLQLSDSGQYVSRARNAIGEAFACLGLQVDAEA | –
4 | 0.16 | – | B8 (antibody) heavy: not shown light: SSELTQDPAVSVALGQTVRVTCQGDSLRSYYASWYQQKPGQAPVLVIYGKNNRPSGIPDRFSGSSSGNTASLTITGAQAEDEADYYCSSRDSSGNHWVFGGGTELTVLSGAPRFLTRPLSYVVSVGKDASLSSQIVGNPTPQVSWEKDQLPVTAGARFRLAQDGDLYRLKILDLQLSDSGQYVSRARNAIGEAFACVGLEVGAEA | –
5 | 0.29 | – | B5 (antibody) heavy: not shown light: SSELTQDPAVSVALGQTVRVTCQGDSLRSYYASWYQQKPGQAPVLVIYGKNNRPSGIPDRFSGSSSGNTASLTITGAQAEDEADYYCSSRDSSGNHWVFGGGTELTVLSGAPRFLTRPLAFVVSVGKDATLSSQIVGNPTPQVSWEKDQLPVTAGARFRLAQDGDLYRLKILDLTLSDSGQYVSRARNAIGEAFACVGLEVGAEA | –
6 | 0.28 | – | B1 (antibody) heavy: not shown light: SSELTQDPAVSVALGQTVRVTCQGDSLRSYYASWYQQKPGQAPVLVIYGKNNRPSGIPDRFSGSSSGNTASLTITGAQAEDEADYYCSSRDSSGNHWVFGGGTELTVLSGAPRFLTRPLAFVVSVGKDATLSSQIVGNPTPQVSWEKDQQPVAAGARFRLAQDGDLYRLKILDLALGDSGQYVSRARNAIGEAFACVGLQVDAEA | –
7 | 0.19 | – | B6 (antibody) heavy: not shown light: SSELTQDPAVSVALGQTVRVTCQGDSLRSYYASWYQQKPGQAPVLVIYGKNNRPSGIPDRFSGSSSGNTASLTITGAQAEDEADYYCSSRDSSGNHWVFGGGTELTVLSGAPRFLTRPLAFVVSVGKDATLSSQIVGNPTPQVSWEKDQLPVTAGARFRLAQDGDLYRLKILDLTLSDSGQYVSRARNAIGEAFACVGLEVGAEA | –
8 | – | – | N0 (antibody, human IgG1, kappa) heavy: not shown light: EIVLTQSPGTLSLSPGERATLSCRASQNINNRFLAWYQQRPGQAPRLLIYAASSRATGVPDRFSGSGSGTDFTLTISRLEAEDFAMYHCQQYGSFPRTFGQGTMVDIKRTVAAPSVFIFPPSDEQLKSGTASVVCLLNNFYPREAKVQWKVDNALQSGNSQESVTEQDSKDSTYSLSSTLTLSKADYEKHKVYACEVTHQGLSSPVTKSFNRGEC | EC50 (CEA on MKN45 cells): 0.82 nM
9 | – | – | N1 (antibody) heavy: not shown light: EIVLTQSPGTLSLSPGERATLSCRASQNINNRFLAWYQQRPGQAPRLLIYAASSRATGVPDRFSGSGSGTDFTLTISRLEAEDFAMYHCQQYGSFPRTFGQGTMVDIKGILQPDPPANITVTAVARNPRWLSVTWQDPHSWNSSFYRLRFELRYRAERSKTFTTWMVKDLQHHCVIHDAWSGLRHVVQLRAQEEFGQGEWSEWSPEAMGTPW | EC50 (CEA on MKN45 cells): 1230 nM
10 | – | – | N5 (antibody) heavy: not shown light: EIVLTQSPGTLSLSPGERATLSCRASQNINNRFLAWYQQRPGQAPRLLIYAASSRATGVPDRFSGSGSGTDFTLTISRLEAEDFAMYHCQQYGSFPRTFGQGTMVDIKGIPPKIEALPSDISIDEGKVLTVACAFTGEPTPEVTWSCGGRKIHSQEQGRFHIENTDDLTTLIIMDVQKQDGGLYTLSLGNEFGSDSATVNIHIRSI | EC50 (CEA on MKN45 cells): 5.24 nM
11 | – | 0.36 | R19 (antibody) heavy: not shown light: DIQMTQSPSSLSASVGDRVTITCLASEGISSYLAWYQQKPGKAPKLLIYGANSLQTGVPSRFSGSGSATDYTLTISSLQPEDFATYYCQQSYKFPNTFGQGTKVEVKDQPQFSGAPRFKTRPKAFVVSVGKDATLSSQIVGNPTPQVSWEKDQQPVAAGARFRLAQDGDLYRLKILDLALGDSGQYVSRARNAIGEAFACVGLQVDAEA | –
12 | – | 0.37 | R21 (antibody) heavy: not shown light: DIQMTQSPSSLSASVGDRVTITCLASEGISSYLAWYQQKPGKAPKLLIYGANSLQTGVPSRFSGSGSATDYTLTISSLQPEDFATYYCQQSYKFPNTFGQGTKVEVKDQPQFSGAPRFRTRPKAFVVSVGKDATLSSQIVGNPTPQVSWEKDQQPVAAGARFRLAQDGDLYRLKILDLALGDSGQYVSRARNAIGEAFACVGLQVDAEA | –
13 | – | 0.39 | R22 (antibody) heavy: not shown light: DIQMTQSPSSLSASVGDRVTITCLASEGISSYLAWYQQKPGKAPKLLIYGANSLQTGVPSRFSGSGSATDYTLTISSLQPEDFATYYCQQSYKFPNTFGQGTKVEVKDQPQFSGAPRFRTRPKAFVVSVGKDATLSSQIVGNPTPQVSWEKDQQPVAAGARFRLAQDGDLYRLHILDLALGDSGQYVSRARNAIGEAFACVGLQVDAEA | –
14 | – | 0.39 | R20 (antibody) heavy: not shown light: DIQMTQSPSSLSASVGDRVTITCLASEGISSYLAWYQQKPGKAPKLLIYGANSLQTGVPSRFSGSGSATDYTLTISSLQPEDFATYYCQQSYKFPNTFGQGTKVEVKDQPQFSGAPRFKTRPKAFVVSVGKDATLSSQIVGNPTPQVSWEKDQQPVAAGARFRLAQDGDLYRLHILDLALGDSGQYVSRARNAIGEAFACVGLQVDAEA | –
15 | – | 0.44 | R18 (antibody) heavy: not shown light: DIQMTQSPSSLSASVGDRVTITCLASEGISSYLAWYQQKPGKAPKLLIYGANSLQTGVPSRFSGSGSATDYTLTISSLQPEDFATYYCQQSYKFPNTFGQGTKVEVKDQPQFSGAPRFLTRPKAFVVSVGKDATLSSQIVGNPTPQVSWEKDQQPVAAGARFRLAQDGDLYRLTILDLALGDSGQYVSRARNAIGEAFACVGLQVDAEA | –
16 | 0.19 | – | B2 (antibody) heavy: not shown light: SSELTQDPAVSVALGQTVRVTCQGDSLRSYYASWYQQKPGQAPVLVIYGKNNRPSGIPDRFSGSSSGNTASLTITGAQAEDEADYYCSSRDSSGNHWVFGGGTELTVLSGAPRFLTRPKSYTVSVGKDASLSSQIVGNPTPQVSWEKDQQPVAAGARFRLAQDGDLYRLKILDLALGDSGQYVSRARNAIGEAFACVGLQVDAEA | –
17 | – | 0.37 | R10 (antibody) heavy: not shown light: DIQMTQSPSSLSASVGDRVTITCLASEGISSYLAWYQQKPGKAPKLLIYGANSLQTGVPSRFSGSGSATDYTLTISSLQPEDFATYYCQQSYKFPNTFGQGTKVEVKSGAPRFLTRPKAFVVSVGKDATLSSQIVGNPTPQVSWEKDQQPVAAGARFRLAQDGDLYRLTILDLALGDSGQYVSRARNAIGEAFACVGLQVDAEA | EC50 (hIL-5 [2]): 3.2 nM
18 | – | 0.4 | R17 (antibody) heavy: not shown light: DIQMTQSPSSLSASVGDRVTITCLASEGISSYLAWYQQKPGKAPKLLIYGANSLQTGVPSRFSGSGSATDYTLTISSLQPEDFATYYCQQSYKFPNTFGQGTKVEVKSGAPRFLTRPLAFVVSVGKDATLSSQIVGNPTPQVSWEKDQQPVAAGARFRLAQDGDLYRLHILDLALGDSGQYVSRARNAIGEAFACVGLQVDAEA | –
19 | – | 0.33 | R16 (antibody) heavy: not shown light: DIQMTQSPSSLSASVGDRVTITCLASEGISSYLAWYQQKPGKAPKLLIYGANSLQTGVPSRFSGSGSATDYTLTISSLQPEDFATYYCQQSYKFPNTFGQGTKVEVKSGAPRFLTRPLAFVVSVGKDATLSSQIVGNPTPQVSWEKDQQPVAAGARFRLAQDGDLYRLKILDLALGDSGQYVSRARNAIGEAFACVGLQVDAEA | –
20 | – | 0.3 | R15 (antibody) heavy: not shown light: DIQMTQSPSSLSASVGDRVTITCLASEGISSYLAWYQQKPGKAPKLLIYGANSLQTGVPSRFSGSGSATDYTLTISSLQPEDFATYYCQQSYKFPNTFGQGTKVEVKSGAPRFKTRPKAFVVSVGKDATLSSQIVGNPTPQVSWEKDQQPVAAGARFRLAQDGDLYRLHILDLALGDSGQYVSRARNAIGEAFACVGLQVDAEA | –
21 | – | – | N2 (antibody) heavy: not shown light: EIVLTQSPGTLSLSPGERATLSCRASQNINNRFLAWYQQRPGQAPRLLIYAASSRATGVPDRFSGSGSGTDFTLTISRLEAEDFAMYHCQQYGSFPRTFGQGTMVDIKFDPVYKVKPNPPHNLSVINSEELSSILKLTWTNPSIKSVIILKYNIQYRTKDASTWSQIPPEDTASTRSSFTVQDLKPFTEYVFRIRCMKEDGKGYWSDWSEEASGIT | EC50 (CEA on MKN45 cells): 766 nM
